From patent US20180339041A1 (Kyowa Kirin, published 2018)
Residue numbers refer to the chain shown, from its start. Names may count otherwise. “And” between values parts separate entries of the source, which are not always exact repeats. Identical values can stand only once.

T1: C-terminally FLAG-tagged human Gas6 recombinant protein (hGas6-F) (human, UniProt Q14393 31-678, gamma-carboxylated glutamic acid residues in the Gla domain (producer cells co-express rat VKOR and human GGCX); positions not given)
T1 construct: also called human Gas6-F; human Gas6 protein
T1 sequence: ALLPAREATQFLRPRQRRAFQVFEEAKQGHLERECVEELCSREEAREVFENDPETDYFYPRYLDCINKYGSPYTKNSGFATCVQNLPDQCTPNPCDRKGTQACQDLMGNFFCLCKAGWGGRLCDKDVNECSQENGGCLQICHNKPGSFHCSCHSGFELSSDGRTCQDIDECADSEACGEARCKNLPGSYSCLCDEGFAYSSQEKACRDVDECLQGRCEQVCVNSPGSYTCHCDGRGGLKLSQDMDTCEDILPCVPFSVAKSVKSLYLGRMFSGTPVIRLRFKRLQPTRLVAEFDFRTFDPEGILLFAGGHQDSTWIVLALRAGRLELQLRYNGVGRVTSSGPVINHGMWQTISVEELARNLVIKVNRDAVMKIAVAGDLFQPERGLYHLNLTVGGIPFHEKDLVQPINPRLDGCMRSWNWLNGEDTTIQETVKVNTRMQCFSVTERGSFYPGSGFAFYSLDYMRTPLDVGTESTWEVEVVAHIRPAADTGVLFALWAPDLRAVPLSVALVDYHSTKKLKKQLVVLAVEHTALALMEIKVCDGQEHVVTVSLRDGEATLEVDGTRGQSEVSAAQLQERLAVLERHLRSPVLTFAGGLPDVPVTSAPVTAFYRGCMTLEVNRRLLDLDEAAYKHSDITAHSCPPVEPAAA

B1: KM5321 chimeric antibody (antibody, V domains shown)
VH: QIQLVQSGPELKKPGETVKISCRASGYTFTNYGMNWVKQAPGKGLKWMGWINTNTGEPTYTEEFKGRFAFSLETSATTAYLQINDLKNEDTATYFCARDEGWFVYWGQGTLITVSA
VL: ETTVTQSPASLSVATGEKVTIRCITSTDIDDDMNWYQQKPGEPPKLLISEGNTLRPGVPSRFSSSGYGTDFVFTIENTLSEDVADYYCLQTDSVPLTFGAGTKLELK
notes: also called KM5321 chimera; B-01
B2: hzKM5320 LV1bHV0 antibody (antibody, V domains shown)
VH: QVQLVQSGSELKKPGASVKVSCKASGYTFTNYGMNWVRQAPGQGLEWMGWINTETGEPTYSDDFKGRFVFSLDTSVSTAYLQISSLKAEDTAVYYCAREDGYYGTLDYWGQGTTVTVSS
VL: DVVMTQSPDSLAVSLGERVTINCKASQSVSNDVAWYQQKPGQSPKLLIYYASNRYTGVPDRFSGSGSGTDFTLTISSVQAEDVAVYYCQQDYSSPWTFGQGTKLEIK
notes: Humanized; variant human IgG4 constant region (EU S228P, L235E, R409K), human kappa; also called A-04
B3: hzKM5320 LV5HV2 antibody (antibody, V domains shown)
VH: B2 VH with V93T, Y95F
VL: B2 VL with V2I, L46V, L73F, Y87F
notes: Humanized; variant human IgG4 constant region (EU S228P, L235E, R409K), human kappa; also called kzKM5320 LV5HV2; A-20
B4: hzKM5321 LV3HV7 antibody (antibody, V domains shown)
VH: QIHLVQSGPELKKPGASVKISCKASGYTFTNYGMNWVKQAPGQGLKWMGWINTNTGEPTYTEEFKGRFVFSLDTSVTTAYLQISTLKAEDTATYFCARDEGWFVYWGQGTLITVSS
VL: ETTLTQSPSSLSASTGDRVTITCITSTDIDDDMNWYQQKPGKAPKLLISEGNTLRPGVPSRFSGSGSGTDFTLTISSTQPEDFADYYCLQTDSVPLTFGQGTKVEIK
notes: Humanized; variant human IgG4 constant region (EU S228P, L235E, R409K), human kappa; also called B-16; LV3HV7
B5: hzKM5321 LV4HV0 antibody (antibody, V domains shown)
VH: B4 VH with I2V, P9S, K38R, K46E, A79S, T93V, I112V
VL: B4 VL with A13V, L73F, D85T
notes: Humanized; variant human IgG4 constant region (EU S228P, L235E, R409K), human kappa; also called B-07; LV4HV0
B6: hzKM5321 LV6HV5 antibody (antibody, V domains shown)
VH: B4 VH with P9S, T93V
VL: B4 VL with A13V, A43P, G64S
notes: Humanized; variant human IgG4 constant region (EU S228P, L235E, R409K), human kappa; also called B-29; LV6HV5
B7: hzKM5321 LV6HV3b antibody (antibody, V domains shown)
VH: B4 VH with I2V, P9S, A79S, I112V
VL: B4 VL with A13V, A43P, G64S
notes: Humanized; variant human IgG4 constant region (EU S228P, L235E, R409K), human kappa; also called B-26; LV6HV3b
B8: hzKM5321 LV6HV4a antibody (antibody, V domains shown)
VH: B4 VH with K38R, K46E, T93V
VL: B4 VL with A13V, A43P, G64S
notes: Humanized; variant human IgG4 constant region (EU S228P, L235E, R409K), human kappa; also called B-27; LV6HV4a
B9: hzKM5321 LV6HV0 antibody (antibody, V domains shown)
VH: B4 VH with I2V, P9S, K38R, K46E, A79S, T93V, I112V
VL: B4 VL with A13V, A43P, G64S
notes: Humanized; variant human IgG4 constant region (EU S228P, L235E, R409K), human kappa; also called B-08; LV6HV0
B10: hzKM5321 LV7aHV0 antibody (antibody, V domains shown)
VH: B4 VH with I2V, P9S, K38R, K46E, A79S, T93V, I112V
VL: B4 VL with A13V, A43P, G64S, L73F
notes: Humanized; variant human IgG4 constant region (EU S228P, L235E, R409K), human kappa; also called B-09; LV7aHV0
B11: hzKM5321 LV6HV2a antibody (antibody, V domains shown)
VH: B4 VH with I2V, P9S, A79S, T93V, I112V
VL: B4 VL with A13V, A43P, G64S
notes: Humanized; variant human IgG4 constant region (EU S228P, L235E, R409K), human kappa; also called B-23; LV6HV2a
B12: hzKM5321 LV6HV7 antibody (antibody, V domains shown)
VH: B4 VH
VL: B4 VL with A13V, A43P, G64S
notes: Humanized; variant human IgG4 constant region (EU S228P, L235E, R409K), human kappa; also called B-18; LV6HV7
B13: hzKM5321 LV6HV3a antibody (antibody, V domains shown)
VH: B4 VH with I2V, K38R, A79S, I112V
VL: B4 VL with A13V, A43P, G64S
notes: Humanized; variant human IgG4 constant region (EU S228P, L235E, R409K), human kappa; also called B-25; LV6HV3a
B14: hzKM5321 LV9HV7 antibody (antibody, V domains shown)
VH: B4 VH
VL: B4 VL with L4V, A13V, A43P, G64S, L73F, V104L
notes: Humanized; variant human IgG4 constant region (EU S228P, L235E, R409K), human kappa; also called B-21; LV9HV7
B15: hzKM5321 LV4HV7 antibody (antibody, V domains shown)
VH: B4 VH
VL: B4 VL with A13V, L73F, D85T
notes: Humanized; variant human IgG4 constant region (EU S228P, L235E, R409K), human kappa; also called B-17; LV4HV7
B16: hzKM5321 LV7bHV7 antibody (antibody, V domains shown)
VH: B4 VH
VL: B4 VL with L4V, A13V, T15V, G64S, L73F, V104L
notes: Humanized; variant human IgG4 constant region (EU S228P, L235E, R409K), human kappa; also called B-20; LV7bHV7
B17: hzKM5321 LV7aHV7 antibody (antibody, V domains shown)
VH: B4 VH
VL: B4 VL with A13V, A43P, G64S, L73F
notes: Humanized; variant human IgG4 constant region (EU S228P, L235E, R409K), human kappa; also called B-19; LV7aHV7
B18: hzKM5321 LV6HV4b antibody (antibody, V domains shown)
VH: B4 VH with I2V, A79S, I112V
VL: B4 VL with A13V, A43P, G64S
notes: Humanized; variant human IgG4 constant region (EU S228P, L235E, R409K), human kappa; also called B-28; LV6HV4b
B19: hzKM5321 LV9HV0 antibody (antibody, V domains shown)
VH: B4 VH with I2V, P9S, K38R, K46E, A79S, T93V, I112V
VL: B4 VL with L4V, A13V, A43P, G64S, L73F, V104L
notes: Humanized; variant human IgG4 constant region (EU S228P, L235E, R409K), human kappa; also called B-11; LV9HV0

The binders below were run against T1, C-terminally FLAG-tagged human Gas6 … (assay: ELISA, hGas6-F captured by anti-FLAG, anti-human IgG-HRP).
Protocol: First, 2 μg/mL anti-FLAG antibody [Monoclonal ANTI-FLAG M2 antibody produced in mouse (manufactured by Sigma-Aldrich Co. LLC) diluted with PBS (manufactured by Nacalai Tesque, Inc.)] was dispensed at 50 μL/well to a 96-well plate for ELISA (manufactured by Nalge Nunc International), and the plate was left standing overnight at 4° C. for adsorption. After removal of the immobilization solution, 1% BSA-PBS (manufactured by Nacalai Tesque, Inc.) was added thereto at 300 μL/well, and the plate was left standing at room temperature for 1 hour for blocking and washed five times with Tween 20-PBS (manufactured by Wako Pure Chemical Industries Ltd.).
In order to reduce the backgrounds of measurement values, the diluted secondary antibody solution was mixed with 50 μg/mL of an anti-DNP mouse IgG1 antibody and incubated at room temperature for 1 hour for use.

EC50 | Binder
0.00678 µg/mL | B1
0.0191 µg/mL | B2
0.0122 µg/mL | B3

What follows are binders tested against T1, C-terminally FLAG-tagged human Gas6 … (assay: competitive ELISA, inhibition of hGas6-F binding to immobilised hAxl-hFc).

IC50 | Binder
0.0123 µg/mL | B1
0.742 µg/mL | B2
0.0336 µg/mL | B3

The binders below were run against T1, C-terminally FLAG-tagged human Gas6 … (assay: SPR Biacore T100, captured antibody, Gas6 analyte, first test).
Protocol: (§1) An anti-human IgG antibody was immobilized on a CM5 sensor chip (manufactured by GE Healthcare Japan Corp.) using Human Antibody Capture Kit (manufactured by GE Healthcare Japan Corp.) according to the attached manual. Each test antibody adjusted to 1 μg/mL was added for 10 seconds at a flow rate of 10 μL/min to flow cells. […] The measurement was performed by the […] method. The obtained sensorgram was analyzed using Bia Evaluation Software (manufactured by GE Healthcare Japan Corp.), and the kinetic constant of each antibody was calculated.

Kd | koff | kon | Binder
< 7.03 nM | 0.000712 s⁻¹ | > 101000 M⁻¹ s⁻¹ | B4
< 4.38 nM | 0.000551 s⁻¹ | > 126000 M⁻¹ s⁻¹ | B5
< 2.61 nM | 0.000277 s⁻¹ | > 106000 M⁻¹ s⁻¹ | B6
< 1.88 nM | 0.0002 s⁻¹ | > 106000 M⁻¹ s⁻¹ | B7
< 3.2 nM | 0.000341 s⁻¹ | > 106000 M⁻¹ s⁻¹ | B8
< 1.19 nM | 0.000159 s⁻¹ and 0.000238 s⁻¹ | > 134000 M⁻¹ s⁻¹ | B9
< 1.41 nM | 0.000188 s⁻¹ | > 133000 M⁻¹ s⁻¹ | B10
< 2.07 nM | 0.000212 s⁻¹ | > 102000 M⁻¹ s⁻¹ | B11
< 2.59 nM | 0.000281 s⁻¹ and 0.000278 s⁻¹ | > 107000 M⁻¹ s⁻¹ | B12
< 2.15 nM | 0.000226 s⁻¹ | > 105000 M⁻¹ s⁻¹ | B13
< 3.33 nM | 0.000352 s⁻¹ | > 106000 M⁻¹ s⁻¹ | B14
< 8.59 nM | 0.000859 s⁻¹ | > 100000 M⁻¹ s⁻¹ | B15
< 3.07 nM | 0.000329 s⁻¹ | > 107000 M⁻¹ s⁻¹ | B16
< 2.91 nM | 0.000299 s⁻¹ | > 103000 M⁻¹ s⁻¹ | B17
< 1.92 nM | 0.000204 s⁻¹ | > 106000 M⁻¹ s⁻¹ | B18
< 1.96 nM | 0.000247 s⁻¹ | > 126000 M⁻¹ s⁻¹ | B19
< 1.16 nM | 0.000141 s⁻¹ and 0.000137 s⁻¹ | > 121000 M⁻¹ s⁻¹ | B1
< 16 nM | 0.00115 s⁻¹ | > 72000 M⁻¹ s⁻¹ | B2
< 2.13 nM | 0.000158 s⁻¹ | > 74300 M⁻¹ s⁻¹ | B3

What follows are binders tested against T1, C-terminally FLAG-tagged human Gas6 … (assay: SPR Biacore T100, captured antibody, Gas6 analyte, retest).
Protocol: as §1
In this retest, unlike the test mentioned above, the number of antibodies to be measured and variations in the concentration of the analyte were decreased, and the assay was conducted for a short time (within several hours), instead of sufficiently leaving standing the analyte added to the vial. […] This minimizes the adsorption of the analyte to the vial and permits more accurate calculation of ka and KD values than that in the test mentioned above.

Kd | koff | kon | Binder
0.202 nM | 7.66e-05 s⁻¹ | 380000 M⁻¹ s⁻¹ | B1
16.5 nM | 0.00149 s⁻¹ | 90000 M⁻¹ s⁻¹ | B2
1.29 nM | 0.000197 s⁻¹ | 152000 M⁻¹ s⁻¹ | B3
